The text below walks through data of patent US20240270846A1 (published 2024).

Numbering of substitutions follows the chain as printed. Names may count otherwise.

The assay deals with T1, CD3 epsilon homodimer protein (UniProt P07766 23-126).
T1 construct: also called CD3 (CD3 epsilon)
Nature of the assay: SPR (Biacore T200), CD3e homodimer on CM4 chip, antibody as analyte; KD ratio vs unaltered GLS3000.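 Note: CD3 epsilon homodimer amine-coupled to the sensor surface, antibodies injected as analyte at 25 °C with HBS-EP+ running buffer.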 Background: In SPR one partner is held on a chip, and binding of the other changes the refractive index at the surface.

T1 sequence (P07766 23-126): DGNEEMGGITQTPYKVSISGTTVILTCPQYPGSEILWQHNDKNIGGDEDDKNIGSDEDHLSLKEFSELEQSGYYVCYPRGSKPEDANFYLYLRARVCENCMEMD
Procedure: An appropriate amount of CD3 epsilon homodimer protein was immobilized onto Sensor chip CM4 (GE Healthcare Japan Corp.) by the amine coupling method. Then, the antibody having an appropriate concentration was injected thereto as an analyte and allowed to interact with the CD3 epsilon homodimer protein on the sensor chip. Then, the sensor chip was regenerated by the injection of 10 mmol/L glycine-HCl (pH 1.5). The assay was conducted at 25 degrees C., and HBS-EP+(GE Healthcare Japan Corp.) was used as a running buffer. […] Each parameter was calculated using Biacore T200 Evaluation Software (GE Healthcare Japan Corp.).
Specifically, when the amount of the GLS3000-containing antibody bound was defined as X and the amount of the L chain one-amino acid altered form bound was defined as Y, a value of Z (ratio of amounts bound)=Y/X was used.

B1: CE115HA000/GLS3000 G91A one-arm antibody (antibody, human IgG1, kappa, L234A L235A, N297A, name in Kabat numbering)
heavy: QVQLVESGGGVVQPGRSLRLSCAASGFTFSNAWMHWVRQAPGKGLEWVAQIKAKSNNYATYYAESVKGRFTISRDDSKNSLYLQMNSLKTEDTAVYYCRYVHYGAYYGVDAWGQGTTVTVSSASTKGPSVFPLAPSSKSTSGGTAALGCLVKDYFPEPVTVSWNSGALTSGVHTFPAVLQSSGLYSLSSVVTVPSSSLGTQTYICNVNHKPSNTKVDKKVEPKSCDKTHTCPPCPAPEAAGGPSVFLFPPKPKDTLMISRTPEVTCVVVDVSHEDPEVKFNWYVDGVEVHNAKTKPREEQYASTYRVVSVLTVLHQDWLNGKEYKCKVSNKALPAPIEKTISKAKGQPREPQVYTLPPSRCELTKNQVSLSCAVKGFYPSDIAVEWESNGQPENNYKTTPPVLDSDGSFFLVSKLTVDKSRWQQGNVFSCSVMHEALHNHYTQKSLSLSPDYKDDDDK
chain: EPKSSDKTHTCPPCPAPELLGGPSVFLFPPKPKDTLMISRTPEVTCVVVDVSHEDPEVKFNWYVDGVEVHNAKTKPREEQYNSTYRVVSVLTVLHQDWLNGKEYKCKVSNKALPAPIEKTISKAKGQPREPQVCTLPPSRDELTKNQVSLWCLVKGFYPSDIAVEWESNGQPENNYKTTPPVLDSDGSFFLYSKLTVDKSRWQQGNVFSCSVMHEALHNRYTQKSLSLSP
light: DIVMTQSPLSLPVTPGEPASISCRSSQSLVHSNRNTYLHWYQQKPGQAPRLLIYKVSNRFSGVPDRFSGSGSGTDFTLKISRVEAEDVGVYYCGQATQVPYTFGQGTKLEIKRTVAAPSVFIFPPSDEQLKSGTASVVCLLNNFYPREAKVQWKVDNALQSGNSQESVTEQDSKDSTYSLSSTLTLSKADYEKHKVYACEVTHQGLSSPVTKSFNRGEC
notes: one-arm IgG1
B1: the “KD ratio to GLS3000” value stood at 28.1 ratio.

B2: CE115HA000/GLS3000 H34Y one-arm antibody (antibody, human IgG1, kappa, L234A L235A, N297A, name in Kabat numbering)
heavy: B1 heavy
chain: B1 chain
light: B1 light with H39Y, A96G
notes: one-arm IgG1
Turning to B2, the “KD ratio to GLS3000” value turned out to be 2.44 ratio.

B3: CE115HA000/GLS3000 K50Q one-arm antibody (antibody, human IgG1, kappa, L234A L235A, N297A, name in Kabat numbering)
heavy: B1 heavy
chain: B1 chain
light: B1 light with K55Q, A96G
notes: one-arm IgG1
B3: the “KD ratio to GLS3000” value stood at 8.13 ratio.

B4: CE115HA000/GLS3000 K50S one-arm antibody (antibody, human IgG1, kappa, L234A L235A, N297A, name in Kabat numbering)
heavy: B1 heavy
chain: B1 chain
light: B1 light with K55S, A96G
notes: one-arm IgG1
As for B4, the “KD ratio to GLS3000” value was 45.3 ratio.

B5: CE115HA000/GLS3000 G91D one-arm antibody (antibody, human IgG1, kappa, L234A L235A, N297A, name in Kabat numbering)
heavy: B1 heavy
chain: B1 chain
light: B1 light with A96D
notes: one-arm IgG1
For the molecule B5, the “KD ratio to GLS3000” value came out at 44.8 ratio.

B6: CE115HA000/GLS3000 H34P one-arm antibody (antibody, human IgG1, kappa, L234A L235A, N297A, name in Kabat numbering)
heavy: B1 heavy
chain: B1 chain
light: B1 light with H39P, A96G
notes: one-arm IgG1
B6: the “KD ratio to GLS3000” value was 1.22 ratio.

B7: CE115HA000/GLS3000 K50Y one-arm antibody (antibody, human IgG1, kappa, L234A L235A, N297A, name in Kabat numbering)
heavy: B1 heavy
chain: B1 chain
light: B1 light with K55Y, A96G
notes: one-arm IgG1
B7: the “KD ratio to GLS3000” value worked out at 195 ratio.

B8: CE115HA000/GLS3000 H34S one-arm antibody (antibody, human IgG1, kappa, L234A L235A, N297A, name in Kabat numbering)
heavy: B1 heavy
chain: B1 chain
light: B1 light with H39S, A96G
notes: one-arm IgG1
Turning to B8, the “KD ratio to GLS3000” value stood at 1.24 ratio.

B9: CE115HA000/GLS3000 H34M one-arm antibody (antibody, human IgG1, kappa, L234A L235A, N297A, name in Kabat numbering)
heavy: B1 heavy
chain: B1 chain
light: B1 light with H39M, A96G
notes: one-arm IgG1
With B9, the “KD ratio to GLS3000” value came to 3.16 ratio.

B10: CE115HA000/GLS3000 H34T one-arm antibody (antibody, human IgG1, kappa, L234A L235A, N297A, name in Kabat numbering)
heavy: B1 heavy
chain: B1 chain
light: B1 light with H39T, A96G
notes: one-arm IgG1
With B10, the “KD ratio to GLS3000” value came out at 1.1 ratio.

B11: CE115HA000/GLS3000 H34I one-arm antibody (antibody, human IgG1, kappa, L234A L235A, N297A, name in Kabat numbering)
heavy: B1 heavy
chain: B1 chain
light: B1 light with H39I, A96G
notes: one-arm IgG1
Consider B11, for which the “KD ratio to GLS3000” value turned out to be 0.89 ratio.

B12: CE115HA000/GLS3000 H34G one-arm antibody (antibody, human IgG1, kappa, L234A L235A, N297A, name in Kabat numbering)
heavy: B1 heavy
chain: B1 chain
light: B1 light with H39G, A96G
notes: one-arm IgG1
As to B12, the “KD ratio to GLS3000” value was 1.08 ratio.

B13: CE115HA000/GLS3000 H34L one-arm antibody (antibody, human IgG1, kappa, L234A L235A, N297A, name in Kabat numbering)
heavy: B1 heavy
chain: B1 chain
light: B1 light with H39L, A96G
notes: one-arm IgG1
As for B13, the “KD ratio to GLS3000” value is 1.03 ratio.

B14: CE115HA000/GLS3000 H34Q one-arm antibody (antibody, human IgG1, kappa, L234A L235A, N297A, name in Kabat numbering)
heavy: B1 heavy
chain: B1 chain
light: B1 light with H39Q, A96G
notes: one-arm IgG1
For B14, the “KD ratio to GLS3000” value is 4.6 ratio.

B15: CE115HA000/GLS3000 K50P one-arm antibody (antibody, human IgG1, kappa, L234A L235A, N297A, name in Kabat numbering)
heavy: B1 heavy
chain: B1 chain
light: B1 light with K55P, A96G
notes: one-arm IgG1
For B15, the “KD ratio to GLS3000” value amounted to 27.7 ratio.

B16: CE115HA000/GLS3000 H34F one-arm antibody (antibody, human IgG1, kappa, L234A L235A, N297A, name in Kabat numbering)
heavy: B1 heavy
chain: B1 chain
light: B1 light with H39F, A96G
notes: one-arm IgG1
With B16, the “KD ratio to GLS3000” value amounted to 3.5 ratio.

B17: CE115HA000/GLS3000 H34K one-arm antibody (antibody, human IgG1, kappa, L234A L235A, N297A, name in Kabat numbering)
heavy: B1 heavy
chain: B1 chain
light: B1 light with H39K, A96G
notes: one-arm IgG1
Consider B17, for which the “KD ratio to GLS3000” value was found to be 4.1 ratio.

B18: CE115HA000/GLS3000 K50R one-arm antibody (antibody, human IgG1, kappa, L234A L235A, N297A, name in Kabat numbering)
heavy: B1 heavy
chain: B1 chain
light: B1 light with K55R, A96G
notes: one-arm IgG1
As for B18, the “KD ratio to GLS3000” value came out at 1.83 ratio.

B19: CE115HA000/GLS3000 H34N one-arm antibody (antibody, human IgG1, kappa, L234A L235A, N297A, name in Kabat numbering)
heavy: B1 heavy
chain: B1 chain
light: B1 light with H39N, A96G
notes: one-arm IgG1
As for B19, the “KD ratio to GLS3000” value stood at 2.84 ratio.

B20: CE115HA000/GLS3000 K50G one-arm antibody (antibody, human IgG1, kappa, L234A L235A, N297A, name in Kabat numbering)
heavy: B1 heavy
chain: B1 chain
light: B1 light with K55G, A96G
notes: one-arm IgG1
Consider B20, for which the “KD ratio to GLS3000” value is 42.4 ratio.

B21: CE115HA000/GLS3000 K107E one-arm antibody (antibody, human IgG1, kappa, L234A L235A, N297A, name in Kabat numbering)
heavy: B1 heavy
chain: B1 chain
light: B1 light with A96G, K112E
notes: one-arm IgG1
With B21, the “KD ratio to GLS3000” value worked out at 0.95 ratio.

B22: CE115HA000/GLS3000 G91E one-arm antibody (antibody, human IgG1, kappa, L234A L235A, N297A, name in Kabat numbering)
heavy: B1 heavy
chain: B1 chain
light: B1 light with A96E
notes: one-arm IgG1
For B22, the “KD ratio to GLS3000” value amounted to 48.5 ratio.

B23: CE115HA000/GLS3000 K50T one-arm antibody (antibody, human IgG1, kappa, L234A L235A, N297A, name in Kabat numbering)
heavy: B1 heavy
chain: B1 chain
light: B1 light with K55T, A96G
notes: one-arm IgG1
For B23, the “KD ratio to GLS3000” value is 25.1 ratio.

B24: CE115HA000/GLS3000 H34D one-arm antibody (antibody, human IgG1, kappa, L234A L235A, N297A, name in Kabat numbering)
heavy: B1 heavy
chain: B1 chain
light: B1 light with H39D, A96G
notes: one-arm IgG1
Turning to B24, the “KD ratio to GLS3000” value is 2100 ratio.

B25: CE115HA000/GLS3000 K50L one-arm antibody (antibody, human IgG1, kappa, L234A L235A, N297A, name in Kabat numbering)
heavy: B1 heavy
chain: B1 chain
light: B1 light with K55L, A96G
notes: one-arm IgG1
For the molecule B25, the “KD ratio to GLS3000” value worked out at 36.4 ratio.

B26: CE115HA000/GLS3000 H34V one-arm antibody (antibody, human IgG1, kappa, L234A L235A, N297A, name in Kabat numbering)
heavy: B1 heavy
chain: B1 chain
light: B1 light with H39V, A96G
notes: one-arm IgG1
For the molecule B26, the “KD ratio to GLS3000” value was 1.04 ratio.

B27: CE115HA000/GLS3000 L33F one-arm antibody (antibody, human IgG1, kappa, L234A L235A, N297A, name in Kabat numbering)
heavy: B1 heavy
chain: B1 chain
light: B1 light with L38F, A96G
notes: one-arm IgG1
B27: the “KD ratio to GLS3000” value is 0.65 ratio.

B28: CE115HA000/GLS3000 H34W one-arm antibody (antibody, human IgG1, kappa, L234A L235A, N297A, name in Kabat numbering)
heavy: B1 heavy
chain: B1 chain
light: B1 light with H39W, A96G
notes: one-arm IgG1
Take B28: the “KD ratio to GLS3000” value was found to be 8.45 ratio.

B29: CE115HA000/GLS3000 K50E one-arm antibody (antibody, human IgG1, kappa, L234A L235A, N297A, name in Kabat numbering)
heavy: B1 heavy
chain: B1 chain
light: B1 light with K55E, A96G
notes: one-arm IgG1
In the case of B29, the “KD ratio to GLS3000” value stood at 57.2 ratio.

B30: CE115HA000/GLS3000 L33E one-arm antibody (antibody, human IgG1, kappa, L234A L235A, N297A, name in Kabat numbering)
heavy: B1 heavy
chain: B1 chain
light: B1 light with L38E, A96G
notes: one-arm IgG1
On to B30, for which the “KD ratio to GLS3000” value was 0.83 ratio.

B31: CE115HA000/GLS3000 H34E one-arm antibody (antibody, human IgG1, kappa, L234A L235A, N297A, name in Kabat numbering)
heavy: B1 heavy
chain: B1 chain
light: B1 light with H39E, A96G
notes: one-arm IgG1
As for B31, the “KD ratio to GLS3000” value turned out to be 8.03 ratio.

B32: CE115HA000/GLS3000 K50D one-arm antibody (antibody, human IgG1, kappa, L234A L235A, N297A, name in Kabat numbering)
heavy: B1 heavy
chain: B1 chain
light: B1 light with K55D, A96G
notes: one-arm IgG1
With B32, the “KD ratio to GLS3000” value was determined as 114 ratio.

B33: CE115HA000/GLS3000 L33D one-arm antibody (antibody, human IgG1, kappa, L234A L235A, N297A, name in Kabat numbering)
heavy: B1 heavy
chain: B1 chain
light: B1 light with L38D, A96G
notes: one-arm IgG1
For the molecule B33, the “KD ratio to GLS3000” value is 37.5 ratio.
